From the nanobody polyreactivity screen of Harvey et al. (2022)

Experiment: yeast display, Sf9 membrane polyspecificity reagent, FACS + sequencing; frameworks hold sequencing errors
Method in brief: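 Synthetic nanobody libraries on Saccharomyces cerevisiae BJ5465 were galactose-induced for 36–48 hours, stained 1 hour at 4 °C with 10% biotinylated, detergent-solubilized Sf9 membrane reagent and enriched on streptavidin microbeads. FACS then separated cells into low and high (top ~1%) gates by anti-HA (expression) and streptavidin (reagent binding) fluorescence. Genes were colony-PCR amplified, MiSeq 2 × 250 sequenced and CDR-length filtered. A clone's polyreactivity label is that of its gate of origin.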

QVQLVESGGGLVQAGGSLRLSCAASGITFATYAMGWYRQAPGKERELVAAISGGGGRTYYADSLKGRFTISRDNAKNTVYLQMNSLKPEDTAVYYCATAQRSSQFYHWGQGTQVTVSS
polyreactivity (PSR sort gate): high polyreactivity

QVQLVESGGGLVQAGGSLRLSCAASGSTFGSYAMGWYRQAPGKERELVAAITASGGSTYYADSVKGRFTISRDNGKNTVYLQMKSLKPEDTAVYYCAADTTYIPLSIEYDYWGQGTQVTVSS
polyreactivity (PSR sort gate): low polyreactivity

QVQLVESGGGLVQAGGSLRLSCAASGRIFPYNVMGWYRQAPGKERELVAAISWSGGRTYYADSVKGRFTISRDNAKKTVYLQMNSLKPEDTAVYYCNTRTLVAMGYWGQGTEVTVSS
polyreactivity (PSR sort gate): high polyreactivity

QVQLVESGGGLVQAGGSLRLSCAASGSTFPWNAMGWYRPAPGKERELVAAISSGGSTNYADSVKGRFTISRDNAKNTVYLQMNSLKPEDTAVYYCNAYYWSDSRGKYDYWGQGTQVTVSS
polyreactivity (PSR sort gate): low polyreactivity

QVQLVESGGGLVQAGGSLRLSCAASGSTFGFYAMGWYRQAPGKERELVAAISVSGGSTYYADSVKGRFTISRDNAKNTVYLQMNSLNPEDTGVYYCNKVWRPRYYWGLGTQVTVSS
polyreactivity (PSR sort gate): high polyreactivity

QVQLVESGGGLVQAGGSLRLSCAASGRTFGQYALGGSRKAPGKERELVATITRTARTNYADSVKGRFTISRDNAKNTVYLQMNSLKPEDTAVYYCAKGWPAIYGTYDYCGQGTQVTVSS
polyreactivity (PSR sort gate): high polyreactivity

QVHLVESGGGLFQAGGSLRLSCAASGRTFYYYGMGWYRQAPGKERELVASITNGGNTNYADSVKGRFTISRDNAKNTVYLQMNSLKPEDTAVYYCANDVPYWRPVVRYDYWGQGTQVTVSS
polyreactivity (PSR sort gate): low polyreactivity

HAQLQESGGGLVQAGGSLRRSCAASGSIFRFSGMGWYRLAPGKERELVASIGFGSITYYADRVNGRFTISRDNANNTVYLQMNSLKPEDTAVYYCAVQVQDESWLDYWGQGTQVTVSC
polyreactivity (PSR sort gate): low polyreactivity

QVQLLESGGGLVQAGGSLRLSCAASGRTIRNNTMGWYRQAPGKERELVARITWSGGSTYYADSVKGRFTISRDNAKNNVYLKMNRLKQEDTAVYYCAAVPILVYLWFQSYTGDYDYWGQGTQVTVSS
polyreactivity (PSR sort gate): low polyreactivity

QDQLVESGGGLVQEGGSLRLSCAASGLIFTYYAMGWYRQAPGKERELVAAINYSGGSTYYADSVKGRFTISRDNAKNTVYLQMNSLKPEDTAVYYCDARRVTQTEGPMGYWGQGTQVTVSS
polyreactivity (PSR sort gate): low polyreactivity

QVQLVESGGGLVQAGGSLRLSCAASRRIYYWYVMGWYRQAPGKERELVASISWSGGSTYYADSVKGRFTISRDNAKNTVYLQMNSLKPEDTAVYYCNAGSVYTVSLPGHPYDYWGQGTQVTVSS
polyreactivity (PSR sort gate): low polyreactivity

QVQLVESGGGIVQAGGSLRLSWAASGRNFYRNAMGWYRQAPGKERELVAAISRSGGSTYYADSVKGRFTISRDNAKNTVYLQMNSLKAADTAVYYFNAYRYLQSGPPRYREHGSWGQGTQVNVSS
polyreactivity (PSR sort gate): low polyreactivity

QVQLVESGGGLVQAGGSLRLSCAASGSTFSTNAMGWYRQAPGKERELVAAISRSGGSTYYADSVKGRFTISRDNAKNTFYLQMNSLKPEDTAVYYCARYSYRGTNVRYDYCGQGTQVTVSS
polyreactivity (PSR sort gate): high polyreactivity

QVQLEESGGGLVQAGGSLRLSCAASGSIFRRNVMGWYRQAPGKERELVADINYSGGSTFYADSVKGRFTISRDNAKNTVYLQMNSLKPEDTAVYYCKSSPYREKHGYWGQGTQVTVSS
polyreactivity (PSR sort gate): low polyreactivity

QVQLVESGGGLVQAGGSLRLSCAASGRTFYWYAMGWYRQAPGKERELVAAIRKTDTSTYYADSVKGRFTISRDNAKNTVYLQMNSLKPEDTAVYYCAARSTYSSGKYGYKYDYWGQGTQVTVSS
polyreactivity (PSR sort gate): high polyreactivity

QGQLVESGGGLVQAGGSLRLSCAASGRTLVIKVMGWYRKAPGKERELVAAISFRSGNTYYADSVKGRFTISRDNAKITVYLQMNSLKPEDTAVYDCAAYTYRTSTTSSYYNWGQGTQVTVSS
polyreactivity (PSR sort gate): high polyreactivity

QVQLVESGGGLVQAGGSLRLSCAASGRIFVRNAMGWYRQAPGKERELVAAISRSGGSTYYADSVKGRFTISRDNAKNTVYLQMNSLKPEDTAVYYCNKGFNYGGWFKKYGYWGQGTQVTVSS
polyreactivity (PSR sort gate): high polyreactivity

QVQLVESGGGLVQAGGSLRLSCAASGRTFVSYDMGWYRQAPGKERELVATISWTAGSTYYADSVKGRFTISRDNAKNTVYLQMNSLKPEDTAVYYCAADVFYSIYDYWGQGTQVTVSS
polyreactivity (PSR sort gate): low polyreactivity

QVQLVESGGGLVQAGGSLRLSCAASGSIFYYYAMGWYRQAPGKERELVASITSGGRTYYADSVKGRFTISRDNAKNTVYFQMNSLKPEDTAVYYCAAVYGGLTLTRNYYWGQGTQVTVSS
polyreactivity (PSR sort gate): high polyreactivity

QVQLVESGGGLVQAGGSLRLSCAASGSTFDSNTMRWYRQAPGKETELVAAITVSGGSTHYADSVKGRFTISRDNAKNTVYLQMNSLKPEDTAVYYCNRRSYGYGAFSGYDYWGQGTQVTVSS
polyreactivity (PSR sort gate): low polyreactivity

QVQLVESGGGLVQAGGSLRLSCAASGSTFGPNAMGWYRQAPGKERELVAAIRSNGGRTYYADSVKGRFTISRDNAKITVYLQMNSLKPEDSAVYYCADPHYPYDTPYGYWGQGTQVTVSS
polyreactivity (PSR sort gate): low polyreactivity

QDQLGESGGGVVQAGGSLRLSCAAYGRTLHYYAMGWYRQAPGKERELVAGIRDSGGSTYYADSVKGRFTISRDNEMNTVYFLMNSLKPEDTAVYYCAARSHRRLMYYWGQGTQVNVSS
polyreactivity (PSR sort gate): high polyreactivity

QVQLVESGGGIVQAGGSLRLSCAASGSIFSYNAMVWSRQAPGKQREFVAAIDGSDGSTYYADSVKGRFTISRDNAKNTVYLQMYSLKPEDTAVYSCAATDYDTYRSSWYDYWGQGTQVTVSS
polyreactivity (PSR sort gate): low polyreactivity

QVQLVESGGGLVQAGGSLRLSCAASGSIFKYYAMGWYRQAPGKERELVAAISSGGRTYYADSVKGRFTISRDNAKNTVYLQMNSLKPEDTAVYYCNRPPWSRGSNYWGQGTQVTVSS
polyreactivity (PSR sort gate): high polyreactivity

QVQLVESGGGLVQAGGSLRLSCAASGRTFSRNAMGWYRQAPGKERELVATITSDGSTNYADSVKGRFTISRDNAKITVYLQMNSLKPEDTAVYYCAAGEQSSIIGAHDYWGQGTQVTVSS
polyreactivity (PSR sort gate): low polyreactivity

QVQLVESGGGLVQAGGSLRLSCAASGRTFGLNAMGWYRQAPGKERELVAAITYSGGSTYYADSVKGRFTISRDNAKNTVYLQMNSLKPEDTAVYYCAKEVQTYWYHYYYWGQGTQVTVSS
polyreactivity (PSR sort gate): high polyreactivity

QVQLVESGGGLVQAGGSLRLSCAASGRTFSLYTMGWYRQAPWKERELVASITSSGSTSYADSVKGRFTISRDNAKNTVYLQMNSLKPEDTAVYYCNAAVSYPKYPYVSPGVPSYDYWGQGTQVTVSS
polyreactivity (PSR sort gate): low polyreactivity

QVQLVESGGGLVQAGGSHRLSCAASGGTFSNNAMGWYRQAPGKERELVAAISNSGGRTYYADSVKGRFTISRDNAKNTVYLQMNSLKPEDTAVYYCNARYRLMDYWGQGTQVTVSL
polyreactivity (PSR sort gate): high polyreactivity

QVQLVESGGGLVQAGGSLRLSCAASGFTFHDYVMAWYRQAPGKERELVAAISRSGGSTYYADSVKGRFTISRDNAKHTVYLQMNSLIPEDTAVYYCAAREYTTGGWRYNYWGQGTQVTVSS
polyreactivity (PSR sort gate): high polyreactivity

QVQLVESGGGLVQAGGSLRLSCAASGSTFTQNTMGWYRQAPGKERELVAAISWSGTRTYYADSVKGRFTISRDNAKNTVYLQMNSLKPEDTAVYYCAARTHVPAEYDYWGQGTQVTVSS
polyreactivity (PSR sort gate): high polyreactivity

QVQLVESGGGLVQAGGSLRLSRAASGRTFYGYAMGWYRQAPGKESELVARIRSGGSTNYADSVKGRFTISRDNAKNTVYLQMNSLIPEDTAVYYCAARPGAAGYKYYYWGQGTQVTVSS
polyreactivity (PSR sort gate): high polyreactivity

QVQLVESGGGLVQAGGSLRLSCAASGFTFTWNTMGWYRQAPGKERELVAAITTGGRTYYADSVKGRFTISRDNAKNTVYLQMNSLKPEDTAVYYCNKLFIAKYDSWGQGTQVTVSS
polyreactivity (PSR sort gate): high polyreactivity

QVQLVESGGGLVQAGGSLRLSCAASGSIFGYSAMGWYRQAPGKERELVAAIDSGGSTYYADSVKGRFTISRDNAKNTVYLQMNSLKPQDTAVYYCAAGVSSFSPYDSWGQGTQVTVSS
polyreactivity (PSR sort gate): low polyreactivity

QVQLVESGGGLVQAGGSLRLSCAASGRTFTSYAMGWYRQAPGKERELVAAISGSGSRTYYADSVKGRFTISRDNAKNTVYLQMNSLKPEDTAVYYCAVSYTTYYHRYYYWGQGTQVTVSS
polyreactivity (PSR sort gate): high polyreactivity

QVQLVESGGGLVQAGGSLRLSFAASGRTFVRYAMVWYRQAPGKERELVAAISWSGGSTYYADSVKGRFTISRDNAKNTVYLQMNSLKPEDTAVYYCAAYYRGGNFDYWGQGTQVTLSS
polyreactivity (PSR sort gate): high polyreactivity

QVQLVESGGGLVHAGGSLRLSCAASGSTFTPNAMGWYRQAPRKERDLVAAIRGLNGRTYYADSVKGRITISRDNAKNTVYLQMNSLKPEDTAVYYCAAGGYSNYFAWHDYWGQCTQVTVSS
polyreactivity (PSR sort gate): low polyreactivity

QVQLVESGGGLVQAGGSLRLSCAASGITFYYYTMGWYRQAPGKERELVAAITSRGGNTYYADSVKGRFTISRDYAKNTVYLQMNSLKPEDTAVYFCAASRFSSRGYGYWGQGTQVTVCS
polyreactivity (PSR sort gate): high polyreactivity

QVQLVESGGGLVQAGGSLRLSCAASGITFYFYAMGCERQAPGKERELVAAINRSGSSTYYADSVKGRFTISRDNAKTSVYLQMNSLNPEDTAVYYFAAGWYPWAYEDWGQGTQVTVTS
polyreactivity (PSR sort gate): high polyreactivity

QVQLVESGGGLVQAGGSLRLSCAASGLIFDPNTMGWYRQAPGKERELVAAISSGGDTNYADSVKGRFTISRDNAKNTVYLQMNSLKPEDTAVYYCAAERYYFPRSYRYGYWGQGTQVTVSS
polyreactivity (PSR sort gate): low polyreactivity

QVQLVESGGGLVQAGGSLRLSCAASGSIFIYYAMGWYRQAPGKERELVAAINIGGSTYYADSVKGRFTISRDNAKNTVYFQMNSLKPEDTAVYYCNAATWYRVYPYYIIFDYWGQGTQVTVSS
polyreactivity (PSR sort gate): low polyreactivity

QVQLVESGGGLVQAGGSLRLSCAASGIILSENAKGWYRQAPGKERELVAAITSSGSTNYADSVKGRLTISRDNAKNTVYLQMNSLKPVDTAVYYCATQNLYVSWYYAWYGYGYWGQGTQVNVSS
polyreactivity (PSR sort gate): low polyreactivity

QVKLVESGGGLVMAGGSLRLSCAASGRTFWIYAMGRYRQAPGKERELVAAISQSSSITYYADSVKRRFTFSRDNAKNTVYLQMNSLKPEDTEGYYCNSDVLRYQGSWLEYWGQGTQVTVSS
polyreactivity (PSR sort gate): low polyreactivity

QVQLVESGGGLVQAGGSLRLSCAASGRTFTRYAMGWYRQAPGKERELVASISNGGNTYYADSVKGRFTISRDYAKNTVYLQMNSLKPEDTAVYYCAAKWKNSRPDWRGYWGQGTQVTVSS
polyreactivity (PSR sort gate): high polyreactivity
